Source: CN113956355A

Tests used:
人脑利钠肽(BNP) (human) [1] = target: 人脑利钠肽(BNP) (human) (UniProt P16860); experiment: indirect ELISA, serial two-fold dilution of the antibody; coated antigen taken as BNP
人脑利钠肽(BNP) (human) [2] = target: 人脑利钠肽(BNP) (human) (UniProt P16860); experiment: indirect ELISA, BNP coated at 2 μg/ml, purified antibody diluted 10^4-fold; mean value
人脑利钠肽(BNP) (human) [3] = target: 人脑利钠肽(BNP) (human) (UniProt P16860); experiment: sandwich ELISA, 5G8 coated, HRP-5D11 detection; plasma sample with BNP 1125.7 pg/ml
人脑利钠肽(BNP) (human) [4] = target: 人脑利钠肽(BNP) (human) (UniProt P16860); experiment: sandwich ELISA, 5G8 coated, HRP-5D11 detection; plasma sample with BNP 2046.3 pg/ml
人脑利钠肽(BNP) (human) [5] = target: 人脑利钠肽(BNP) (human) (UniProt P16860); experiment: sandwich ELISA kit, 5G8 coated at 5 μg/ml, HRP-5D11 detection; synthetic BNP standard 250 pg/ml
人脑利钠肽(BNP) (human) [6] = target: 人脑利钠肽(BNP) (human) (UniProt P16860); experiment: sandwich ELISA, 5G8 coated, HRP-5D11 detection; plasma sample with BNP 287 pg/ml
人脑利钠肽(BNP) (human) [7] = target: 人脑利钠肽(BNP) (human) (UniProt P16860); experiment: sandwich ELISA kit, 5G8 coated at 5 μg/ml, HRP-5D11 detection; synthetic BNP standard 15.625 pg/ml
人脑利钠肽(BNP) (human) [8] = target: 人脑利钠肽(BNP) (human) (UniProt P16860); experiment: sandwich ELISA kit, 5G8 coated at 5 μg/ml, HRP-5D11 detection; 0 pg/ml BNP (blank)
人脑利钠肽(BNP) (human) [9] = target: 人脑利钠肽(BNP) (human) (UniProt P16860); experiment: sandwich ELISA kit, 5G8 coated at 5 μg/ml, HRP-5D11 detection; synthetic BNP standard 3.90625 pg/ml
人脑利钠肽(BNP) (human) [10] = target: 人脑利钠肽(BNP) (human) (UniProt P16860); experiment: sandwich ELISA, 5G8 coated, HRP-5D11 detection; 0 pg/ml BNP (blank)
人脑利钠肽(BNP) (human) [11] = target: 人脑利钠肽(BNP) (human) (UniProt P16860); experiment: sandwich ELISA, 5G8 coated, HRP-5D11 detection; plasma sample with BNP 108 pg/ml
人脑利钠肽(BNP) (human) [12] = target: 人脑利钠肽(BNP) (human) (UniProt P16860); experiment: sandwich ELISA kit, 5G8 coated at 5 μg/ml, HRP-5D11 detection; synthetic BNP standard 31.25 pg/ml
人脑利钠肽(BNP) (human) [13] = target: 人脑利钠肽(BNP) (human) (UniProt P16860); experiment: sandwich ELISA, 5G8 coated, HRP-5D11 detection; plasma sample with BNP 425.6 pg/ml
人脑利钠肽(BNP) (human) [14] = target: 人脑利钠肽(BNP) (human) (UniProt P16860); experiment: sandwich ELISA kit, 5G8 coated at 5 μg/ml, HRP-5D11 detection; synthetic BNP standard 125 pg/ml
人脑利钠肽(BNP) (human) [15] = target: 人脑利钠肽(BNP) (human) (UniProt P16860); experiment: sandwich ELISA kit, 5G8 coated at 5 μg/ml, HRP-5D11 detection; synthetic BNP standard 62.5 pg/ml
人脑利钠肽(BNP) (human) [16] = target: 人脑利钠肽(BNP) (human) (UniProt P16860); experiment: sandwich ELISA, 5G8 coated, HRP-5D11 detection; plasma sample with BNP 3287.3 pg/ml
人脑利钠肽(BNP) (human) [17] = target: 人脑利钠肽(BNP) (human) (UniProt P16860); experiment: sandwich ELISA kit, 5G8 coated at 5 μg/ml, HRP-5D11 detection; synthetic BNP standard 7.8125 pg/ml
人脑利钠肽(BNP) (human) [18] = target: 人脑利钠肽(BNP) (human) (UniProt P16860); experiment: sandwich ELISA, 5G8 coated, HRP-5D11 detection; plasma sample with BNP 39.7 pg/ml

Chain of UniProt P16860 (P16860 103-134): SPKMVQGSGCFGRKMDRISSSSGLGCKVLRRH

Row | 效价 (ELISA titer) (人脑利钠肽(BNP) (human) [1]) | OD450 (人脑利钠肽(BNP) (human) [2]) [OD450] | OD450nm (人脑利钠肽(BNP) (human) [3]) [OD450nm] | OD450nm (人脑利钠肽(BNP) (human) [4]) [OD450nm] | OD450nm (人脑利钠肽(BNP) (human) [5]) [OD450nm] | OD450nm (人脑利钠肽(BNP) (human) [6]) [OD450nm] | OD450nm (人脑利钠肽(BNP) (human) [7]) [OD450nm] | OD450nm (人脑利钠肽(BNP) (human) [8]) [OD450nm] | OD450nm (人脑利钠肽(BNP) (human) [9]) [OD450nm] | OD450nm (人脑利钠肽(BNP) (human) [10]) [OD450nm] | OD450nm (人脑利钠肽(BNP) (human) [11]) [OD450nm] | OD450nm (人脑利钠肽(BNP) (human) [12]) [OD450nm] | OD450nm (人脑利钠肽(BNP) (human) [13]) [OD450nm] | OD450nm (人脑利钠肽(BNP) (human) [14]) [OD450nm] | OD450nm (人脑利钠肽(BNP) (human) [15]) [OD450nm] | OD450nm (人脑利钠肽(BNP) (human) [16]) [OD450nm] | OD450nm (人脑利钠肽(BNP) (human) [17]) [OD450nm] | OD450nm (人脑利钠肽(BNP) (human) [18]) [OD450nm] | Binder
1 | 1.3e+07 | 2.85 |  |  |  |  |  |  |  |  |  |  |  |  |  |  |  |  | 兔单克隆抗体OTIR5D11 (antibody, V domains shown) VH: QSVEESGGRLVTPGTPLTLTCTVSGFSLSSYAMNWVRQAPGKGLEWIGYIDSSGTIYYASWAKGRFTISKTSTTVDLKITSPTTEDTATYFCARGMNWGQGTLVTVS VL: AAVLTQTPSPVSAAVGGTVTISCQSSQSVYDNNALAWYQQKPGQPPKRLIYKASTLDSGVPSRFSGSGSGTQFTLTISGVQCDDAATYYCLGEYYDDAEFGGGTEVVVK
2 | 6.6e+06 | 2.85 | 2.8 | 3.48 | 2 | 1.37 | 0.086 | 0.01 | 0.024 | 0.026 | 0.951 | 0.224 | 1.74 | 1.11 | 0.529 | 3.6 | 0.033 | 0.273 | 兔单克隆抗体OTIR5G8 (antibody, V domains shown) VH: QSLEESGGRLVTPGTPLTLTCTASGFSLISYDMSWVRQAPGKGLEWIGFLGSGSSAYYASWAKGRFTISRTSTTVDLKITSPTTEDTATYFCARGTGWGQGTLVTVSS VL: AQVLTQTPSSVSAAVGGTVTINCQASQSVYKNNWLSWFQQKPGQPLKRLTYRASTLDSGVPSRFSGSGSGTEFTLTISDVQCDDAATYYCLGSYDCSSADFGGGTEMVVK
